Measured values: patent WO2018134389A1

Target: DC-SIGN ECD immobilised on a streptactin-functionalised SPR surface (human) (UniProt Q9NNX6)
Sequence (Q9NNX6 59-404): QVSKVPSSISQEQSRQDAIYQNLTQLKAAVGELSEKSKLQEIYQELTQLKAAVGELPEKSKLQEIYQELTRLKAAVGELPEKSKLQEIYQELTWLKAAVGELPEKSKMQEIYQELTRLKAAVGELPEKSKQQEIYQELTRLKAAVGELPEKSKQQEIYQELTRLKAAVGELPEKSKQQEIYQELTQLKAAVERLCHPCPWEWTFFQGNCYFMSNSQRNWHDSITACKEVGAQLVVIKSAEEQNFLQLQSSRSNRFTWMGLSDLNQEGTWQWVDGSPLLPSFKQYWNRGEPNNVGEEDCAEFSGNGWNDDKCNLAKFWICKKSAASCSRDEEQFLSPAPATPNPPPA

Work on “HCMV gB treated with a(2 to 3,6)-neuraminidase (sialic acids removed) (from UniProt P13201 25-907) (ligand)” yielded a Kd of 0.025 nM.
